One assay has as its target S1 (SARS-CoV-2) (UniProt P0DTC2). Put plainly: SPR. In general terms: In SPR one partner is held on a chip, and binding of the other changes the refractive index at the surface.
The target of the next assay is Yu gp120. Put plainly: SPR.

pKd: −log10 of the molar value.

Broadly, the pKd is the Kd on a negative log10 scale, so that one unit is a factor of ten. Lower therefore signals a large Kd.

In the assay with S1 (SARS-CoV-2), ACE2 showed a pKd of 8.62.

Regarding P51G-CVN-HIS(OK), the pKd with Yu gp120 was 7.64.

Values taken from US20230355708A1.
